Experimental data taken from publication PMC3592474.

What was measured:
Conditions in all cases: 100 mM Na+, pH 7.5, 21 C; slow pulling (100 nm/s) for equilibrium measurements
[1] = tested on: HMGB2 (box A), +/- His tag average (human); experiment: optical tweezers, WLC/FJC linear combination fit
[2] = tested on: Nhp6Ap (Saccharomyces cerevisiae); experiment: optical tweezers, WLC/FJC linear combination fit
[3] = tested on: HMGB2 (box A), +/- His tag average (human); experiment: optical tweezers, overstretching force, Hill fit
[4] = tested on: Nhp6Ap (Saccharomyces cerevisiae); experiment: optical tweezers, overstretching force, Hill fit
[5] = tested on: HMGB2 (box A), +/- His tag average (human); experiment: optical tweezers, persistence/contour length, Hill fit
[6] = tested on: Nhp6Ap (Saccharomyces cerevisiae); experiment: as above
[7] = tested on: HMGB2 (box A) +his (human); experiment: optical tweezers, overstretching force vs concentration
[8] = tested on: HMGB2 (box A) -his (human); experiment: as above
[9] = tested on: HMGB2 (box A), +/- His tag average (human); experiment: as above
[10] = tested on: Nhp6Ap (Saccharomyces cerevisiae); experiment: as above
[11] = tested on: HMGB2 (box A) +his (human); experiment: optical tweezers, persistence/contour length vs concentration
[12] = tested on: HMGB2 (box A) -his (human); experiment: as above
[13] = tested on: HMGB2 (box A), +/- His tag average (human); experiment: as above
[14] = tested on: Nhp6Ap (Saccharomyces cerevisiae); experiment: as above

Substance: phage lambda DNA
- Kd [1]: 460 nM
- Kd [2]: 63 nM
- Kd [3]: 850 nM
- Kd [4]: 150 nM
- Kd [5]: 170 nM
- Kd [6]: 66 nM
- Kd [7]: 930 nM
- Kd [8]: 830 nM
- Kd [9]: 880 nM
- Kd [10]: 160 nM
- Kd [11]: 230 nM
- Kd [12]: 130 nM
- Kd [13]: 180 nM
- Kd [14]: 71 nM
